B1: Calcium and integrin-binding protein 1 (Homo sapiens), Q99828-1 (parent)
chain: MGGSGSRLSKELLAEYQDLTFLTKQEILLAHRRFCELLPQEQRSVESSLRAQVPFEQILSLPELKANPFKERICRVFSTSPAKDSLSFEDFLDLLSVFSDTATPDIKSHYAFRIFDFDDDGTLNREDLSRLVNCLTGEGEDTRLSASEMKQLIDNILEESDIDRDGTINLSEFQHVISRSPDFASSFKIVL

Legend:
Settings in all cases: with psn2_human PSEN2, P49810
[1] = variants of: B1
[2] = variants of: B1; remark: listed apart in the source
[3] = variants of: B1; remark: listed apart in the source

Variant | effect of a mutation on the interaction [1] | effect of a mutation on the interaction [2] | effect of a mutation on the interaction [3]
MGGSGSRLSKELLAEYQDLTFLTKQEILLAHRRFCELLPQEQRSVESSLRAQVPFEQILSLPELKANPFKERICRVFSTSPAKDSLSFEDFLDLLSVFSDTATPDIKSHYAFRIFDFDDDGTLNRENLSRLVNCLTGEGEDTRLSASEMKQLIDNILEESDIDRDGTINLSEFQHVISRSPDFASSFKIVL [D127N] | disrupting interaction strength | decreasing interaction | 
MGGSGSRLSKELLAEYQDLTFLTKQEILLAHRRFCELLPQEQRSVESSLRAQVPFEQILSLPELKANPFKERICRVFSTSPAKDSLSFEDFLDLLSVFSDTATPDIKSHYAFRIFDFDDDGTLNRENLSRLVNCLTGEGEDTRLSASEMKQLIDNILEESDIDRDGTINLSQFQHVISRSPDFASSFKIVL [D127N;E172Q] | disrupting interaction strength | decreasing interaction | 
MGGSGSRLSKELLAEYQDLTFLTKQEILLAHRRFCELLPQEQRSVESSLRAQVPFEQILSLPELKANPFKERICRVFSTSPAKDSLSFEDFLDLLSVFSDTATPDIKSHYAFRIFDFDDDGTLNREDLSRLVNCLTGEGEDTRLSASEMKQLIDNILEESDIDRDGTINLSQFQHVISRSPDFASSFKIVL [E172Q] | disrupting interaction strength | decreasing interaction | decreasing interaction strength

Source: IntAct's records for PubMed 15475008
